Laboratory results taken from publication PMC5489143, “One ligand, two regulators and three binding sites: How KDPG controls primary carbon metabolism in Pseudomonas” (PLoS Genetics, 2017).

Assays:
[1] = system: RccR-His (Pseudomonas fluorescens SBW25); assay: DNase I footprinting; conditions: full protection concentration, SPR: 10 mM Hepes pH 7.4, 300 mM NaCl, 3 mM EDTA, 0.05% Tween20, 25 C, DNase I footprint: 10 mM Tris-HCl pH 8.0, 50 mM NaCl, 10 mM KCl, 5 mM MgCl2, 1 mM DTT …
RccR (RccR-His) = molecular target: T1, RccR (RccR-His) (Pseudomonas paralactis, UniProt A0A0R3AJU3); assay: SPR (ReDCaT, Biacore T200), change of RccR binding to immobilised DNA; conditions: effector; lowers binding to aceE and rccR sites, raises binding to aceA 28 bp site; 0.5 uM RccR-His, 0-1000 uM ligand, 10 mM Hepes pH 7.4, 300 mM NaCl, 3 mM EDTA, 25 C
T1 construct: gene hexR; full gene in pET42b, E. coli BL21(DE3) pLysS; C-terminal His tag kept; nickel and heparin columns
T1 sequence (A0A0R3AJU3 1-288): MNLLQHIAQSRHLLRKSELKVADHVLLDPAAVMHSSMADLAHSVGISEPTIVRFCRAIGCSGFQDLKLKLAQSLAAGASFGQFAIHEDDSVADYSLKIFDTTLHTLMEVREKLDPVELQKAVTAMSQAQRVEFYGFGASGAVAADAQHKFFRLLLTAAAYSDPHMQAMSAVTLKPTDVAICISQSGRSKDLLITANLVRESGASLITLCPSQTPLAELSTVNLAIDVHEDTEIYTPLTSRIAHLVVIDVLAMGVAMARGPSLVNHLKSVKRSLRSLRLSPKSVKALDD

aceE promoter DNase I probe
binding signal ([1]; two sites): 10 nM

aceA promoter DNase I probe
binding signal ([1]; lower affinity than aceE and rccR): 80 nM

O=C(O)C(=O)C[C@H](O)[C@H](O)COP(=O)(O)O [KDPG, 2-keto-3-deoxy-6-phosphogluconate]
%Rmax (RccR (RccR-His)): KDPG addition decreased the affinity of RccR-His for both aceE and rccR consensus sequences

rccR promoter DNase I probe
binding signal [1]: 20 nM
